# In the supplement of paper PMC12042874:
# ± gives the uncertainty stated by the source.
# Experiment: amyloid nucleation score (Sup35N fusion, yeast selection) (log enrichment); library NNK3; higher = more nucleation; inactive = no reads after selection
# How it was run: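 Libraries of peptides of 20 random codons fused to Sup35N were expressed in psi-negative yeast and induced 24 hours with 100 μM copper sulfate. Selection was 7 days at 30°C on medium lacking adenine and uracil, and plasmid inserts were Illumina-sequenced before and after selection. Nucleation score is the DiMSum log enrichment of output over input reads, centred on the mode score of non-aggregating sequences, and sequences with under 100 input reads were left out.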
row,Substance,amyloid nucleation score
1,GPPCDFCIRVSVCYTGSVNW,0.466 ± 0.39
2,GPWLLRASNAHTWTRYGLVK,inactive
3,GPYNCFVH,inactive
4,GQLYVMSRSDQARDSFELDA,inactive
5,GQPGQ,inactive
6,GQRNVVSYTSNMNVPLFSFG,inactive
7,GRAHQFLISSFLSPGGPLMR,inactive
8,GRIEKVVRNA,inactive
9,GRIFRLPCYVRLVLVNCRYG,inactive
10,GRNCFGGARTAVGIRNTSPL,inactive
11,GRNYFENVWIHRLYSSCLVM,1.94 ± 0.068
12,GRSMLMLRTYNM,-0.056 ± 0.78
13,GRVMVWIFIFMMGGMQANLS,inactive
14,GRWFVCVQSAWCDCGGDVCV,inactive
15,GRYAEETRYRVFLLIVMTRR,inactive
16,GSAVVAAECIGKRC,inactive
17,GSCRGVRWASRE,inactive
18,GSDLSWGRYKNSRFSSSMSA,inactive
19,GSFITSNA,inactive
20,GSGEVWWVGCRTFFKTG,inactive
21,GSGVNWFNIVVVS,inactive
22,GSHVTKVLTFYSNVWVHFTG,inactive
23,GSISMFNKG,inactive
24,GSLGAMKNQTTASQGAEGAL,inactive
25,GSLMTRRDLRKSPILIYRDG,-0.819 ± 0.75
26,GSRCSASPKNSESGRGKYFG,inactive

row,Substance,amyloid nucleation score
1,GSRGYGWFMKTFAYPRNCKN,inactive
2,GSSRPVVSLTSDLRRCVGKD,inactive
3,GSSVCAR,inactive
4,GSTTCLYTSIPCCAGVLS,0.449 ± 0.21
5,GSVNLSVKSW,inactive
6,GSVSPGNSILICFWFFWLLW,inactive
7,GSWDVKLSF,inactive
8,GSWSKNMILHTLDLDCVAIV,inactive
9,GTDWLDMVILGEPFYMYLST,inactive
10,GTGGSVRPHCEFSLRSSYMV,inactive
11,GTGRSECNCMQGTHGLGICS,-0.184 ± 1.5
12,GTIRVYIKTNDATVIGEHHA,1.21 ± 0.13
13,GTLCVGPLKASCETGKLKFF,inactive
14,GTLTVYNRDFRDIGDFKIYA,inactive
15,GTMSNYPNGFSMSSSYFSTY,inactive
16,GTNDSDFESWNVFKCINCLA,inactive
17,GTQRVAIEDSGVIR,inactive
18,GTSICDVKFAPLYSE,inactive
19,GTTLHYLSRREYGFTGRILF,inactive
20,GTTYTAHYAWSTVGDIWSLH,inactive
21,GTVGHYRLST,inactive
22,GTYSTVKFCLCMWVILAPSS,inactive
23,GVCASNQLALKCTYVPMSVR,inactive
24,GVDDSLLKMRETCSRFGLTV,inactive
25,GVGNPGWAVLM,inactive
26,GVHVVYCVRFSEGIVYTSGF,0.906 ± 0.2

row,Substance,amyloid nucleation score
1,GVKYVDNIGLRGWFFCRHAV,inactive
2,GVLLKVSR,inactive
3,GVLLTYSCSRQLSPDFNCFC,1.62 ± 0.073
4,GVNIRCLRDDDSRLLKERSC,inactive
5,GVPIWCEKYKLILQKNWLFK,inactive
6,GVRLNVDRAVKVARELFH,inactive
7,GVSEAMCVILFYFYWKWVFP,inactive
8,GVVSMVYINKWTRFWVPRPS,inactive
9,GVYHIQPCMRCRLHKGGSDS,inactive
10,GVYPSGCYLNVRFWSLVHGA,inactive
11,GWFSYSRMSNCSLNSTK,inactive
12,GWNVWQGMNKNFGTYFSR,inactive
13,GWSQYGACRVGVWGYRAPYN,inactive
14,GWVYWVSMRVIPNRIVINDP,inactive
15,GYDLFCGILMVDNSASIHTP,2.84 ± 0.063
16,GYFSLPIGGVVRTGVMLDE,inactive
17,GYGCVTKV,inactive
18,GYKFWCSVFLVWLILHVRQS,inactive
19,GYMWGLEDNFALWTGRNNYV,inactive
20,GYNVKGNP,inactive
21,GYRYIVDLG,inactive
22,GYRYTVHGIFEGVLWLTSAG,inactive
23,GYSSTRNLAA,inactive
24,HAFEYVFISVTYQFNVKVIV,inactive
25,HAGNWPSGSGRMSATRRFGW,inactive
26,HAGVHWFERGSFHWMLFINY,inactive
